What was measured:
Fas [1] = experiment: ELISA: 100 ng Fas adsorbed, FasL 100 ng, anti-Flag M2 detection
[2] = biological target: T1, mFLINT (mature human FLINT, non-Flagged, made according to Examples 8 and 9) (human) (UniProt O95407); experiment: ELISA: 100 ng FLINT adsorbed, FasL 50 ng, anti-Flag M2 detection
T1 sequence (chain, glycosylated (p-0200)): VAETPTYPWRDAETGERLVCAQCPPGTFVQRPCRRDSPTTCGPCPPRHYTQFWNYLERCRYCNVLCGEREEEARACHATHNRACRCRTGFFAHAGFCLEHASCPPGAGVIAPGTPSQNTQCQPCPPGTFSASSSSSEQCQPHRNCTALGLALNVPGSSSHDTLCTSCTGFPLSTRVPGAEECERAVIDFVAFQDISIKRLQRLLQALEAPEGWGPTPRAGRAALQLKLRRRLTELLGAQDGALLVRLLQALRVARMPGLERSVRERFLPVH

mrecFas [3] = experiment: ELISA: 100 ng mrecFas adsorbed, FasL 5 ng, anti-Flag M2 detection
[4] = biological target: T1, mFLINT (mature human FLINT, non-Flagged, made according to Examples 8 and 9) (human); experiment: ELISA: 100 ng FLINT adsorbed, FasL 0.5 ng, anti-Flag M2 detection
Fas [5] = experiment: ELISA: 100 ng Fas adsorbed, FasL 1.0 ng, anti-Flag M2 detection
Fas [6] = experiment: ELISA: 100 ng Fas adsorbed, FasL 5.0 ng, anti-Flag M2 detection
mrecFas [7] = experiment: ELISA: 100 ng mrecFas adsorbed, FasL 50 ng, anti-Flag M2 detection
mrecFas [8] = experiment: ELISA: 100 ng mrecFas adsorbed, FasL 10 ng, anti-Flag M2 detection
[9] = biological target: T1, mFLINT (mature human FLINT, non-Flagged, made according to Examples 8 and 9) (human); experiment: ELISA: 100 ng FLINT adsorbed, FasL 10 ng, anti-Flag M2 detection
Fas [10] = experiment: ELISA: 100 ng Fas adsorbed, FasL 0.1 ng, anti-Flag M2 detection
[11] = biological target: T1, mFLINT (mature human FLINT, non-Flagged, made according to Examples 8 and 9) (human); experiment: ELISA: 100 ng FLINT adsorbed, FasL 0.1 ng, anti-Flag M2 detection
mrecFas [12] = experiment: ELISA: 100 ng mrecFas adsorbed, FasL 100 ng, anti-Flag M2 detection
[13] = biological target: T1, mFLINT (mature human FLINT, non-Flagged, made according to Examples 8 and 9) (human); experiment: ELISA: 100 ng FLINT adsorbed, FasL 100 ng, anti-Flag M2 detection
Fas [14] = experiment: ELISA: 100 ng Fas adsorbed, FasL 10 ng, anti-Flag M2 detection
Fas [15] = experiment: ELISA: 100 ng Fas adsorbed, FasL 50 ng, anti-Flag M2 detection
[16] = biological target: T1, mFLINT (mature human FLINT, non-Flagged, made according to Examples 8 and 9) (human); experiment: ELISA: 100 ng FLINT adsorbed, FasL 1.0 ng, anti-Flag M2 detection
Fas [17] = experiment: ELISA: 100 ng Fas adsorbed, FasL 0.5 ng, anti-Flag M2 detection
[18] = biological target: T1, mFLINT (mature human FLINT, non-Flagged, made according to Examples 8 and 9) (human); experiment: ELISA: 100 ng FLINT adsorbed, FasL 5.0 ng, anti-Flag M2 detection
mrecFas [19] = experiment: ELISA: 100 ng mrecFas adsorbed, FasL 500 ng, anti-Flag M2 detection
mrecFas [20] = experiment: ELISA: 100 ng mrecFas adsorbed, FasL 1 ng, anti-Flag M2 detection

Sequence of hFasLigand (Flag-tagged) (P48023 103-281 limits assumed): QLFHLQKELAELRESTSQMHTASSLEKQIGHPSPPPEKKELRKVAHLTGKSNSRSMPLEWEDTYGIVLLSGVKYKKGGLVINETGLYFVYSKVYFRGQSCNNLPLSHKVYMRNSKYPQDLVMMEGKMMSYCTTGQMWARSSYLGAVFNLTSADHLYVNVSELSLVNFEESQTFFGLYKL
Sequence of Fas (P25445 whole entry): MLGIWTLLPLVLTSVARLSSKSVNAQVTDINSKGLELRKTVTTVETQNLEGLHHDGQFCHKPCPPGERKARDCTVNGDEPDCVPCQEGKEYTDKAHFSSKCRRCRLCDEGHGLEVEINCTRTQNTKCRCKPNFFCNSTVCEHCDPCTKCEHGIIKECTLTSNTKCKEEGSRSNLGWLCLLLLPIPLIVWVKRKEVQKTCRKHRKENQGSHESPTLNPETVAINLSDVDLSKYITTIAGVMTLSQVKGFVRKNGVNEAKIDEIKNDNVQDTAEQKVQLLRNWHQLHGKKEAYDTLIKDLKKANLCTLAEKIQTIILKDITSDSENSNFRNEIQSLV

hFasLigand (Flag-tagged) (from UniProt P48023)
Fas OD, 405 nM (Fas [1]): 0.18 OD, 405 nM | FLINT OD [2]: 0.28 OD, 405 nM | OD, 405 nM (mrecFas [3]): 0.2 OD, 405 nM | FLINT OD [4]: 0 OD, 405 nM | Fas OD, 405 nM (Fas [5]): 0 OD, 405 nM | Fas OD, 405 nM (Fas [6]): 0.01 OD, 405 nM | OD, 405 nM (mrecFas [7]): 0.7 OD, 405 nM | OD, 405 nM (mrecFas [8]): 0.3 OD, 405 nM | FLINT OD [9]: 0.12 OD, 405 nM | Fas OD, 405 nM (Fas [10]): 0 OD, 405 nM | FLINT OD [11]: 0 OD, 405 nM | OD, 405 nM (mrecFas [12]): 1.2 OD, 405 nM | FLINT OD [13]: 0.78 OD, 405 nM | Fas OD, 405 nM (Fas [14]): 0.03 OD, 405 nM | Fas OD, 405 nM (Fas [15]): 0.045 OD, 405 nM | FLINT OD [16]: 0.02 OD, 405 nM | Fas OD, 405 nM (Fas [17]): 0 OD, 405 nM | FLINT OD [18]: 0.04 OD, 405 nM | OD, 405 nM (mrecFas [19]): 1.6 OD, 405 nM | OD, 405 nM (mrecFas [20]): 0.1 OD, 405 nM

Reference: patent US20040167074A1, “Therapeutic applications of mFLINT polypeptides” (priority 1998, published 2004)
